Laboratory results reported in US20210214435A1 (MorphoSys, published 2021).

T1: human GPVI (full-length) expressed on stably transfected rat basophilic RBL-2H3 cells (human, UniProt Q9HCN6 21-339)
T1 sequence (looked up): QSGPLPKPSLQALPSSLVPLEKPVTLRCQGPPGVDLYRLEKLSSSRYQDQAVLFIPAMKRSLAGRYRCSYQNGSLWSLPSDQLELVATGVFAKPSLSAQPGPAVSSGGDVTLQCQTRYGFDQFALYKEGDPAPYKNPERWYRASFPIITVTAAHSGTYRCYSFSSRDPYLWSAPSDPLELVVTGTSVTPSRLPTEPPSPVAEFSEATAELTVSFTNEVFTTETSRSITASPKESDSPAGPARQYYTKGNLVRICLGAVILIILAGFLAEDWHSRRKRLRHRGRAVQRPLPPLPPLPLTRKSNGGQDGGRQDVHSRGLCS

T2: mouse GPVI on the cell surface of mouse platelets (mouse, UniProt P0C191 22-313)
T2 construct: whole, on cells; also called GPVI on murine platelets
T2 sequence (looked up): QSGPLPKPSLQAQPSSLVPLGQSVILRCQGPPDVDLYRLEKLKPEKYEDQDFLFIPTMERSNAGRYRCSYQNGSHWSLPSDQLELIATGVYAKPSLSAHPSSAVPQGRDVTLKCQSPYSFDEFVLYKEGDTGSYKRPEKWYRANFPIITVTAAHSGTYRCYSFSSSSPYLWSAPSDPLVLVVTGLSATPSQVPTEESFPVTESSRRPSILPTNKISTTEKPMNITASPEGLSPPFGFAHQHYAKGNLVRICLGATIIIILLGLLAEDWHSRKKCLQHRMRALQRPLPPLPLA

T3: mouse GPVI (full-length) expressed on stably transfected CHO cells (mouse, UniProt P0C191 22-313)
T3 sequence: T2 sequence (looked up)

B1: Fab #1 comprising a modified heavy chain constant region (Fab, V domains shown)
VH: QVQLVQSGAEVKKPGASVKVSCKASGYTFTSHYMHWVRQAPGQGLEWMGLIEPSEGETEYAQRFQGRVTMTRDTSTSTVYMELSSLRSEDTAVYYCARDSSRSYPLGFDIWGQGTLVTVSS
VL: QSVLTQPPSVSAAPGQKVTISCSGSSSNIGNNYVSWYQQLPGTAPKLLIYDNNKRPSGIPDRFSGSKSGTSATLGITGLQTEDEADYYCAAWDFRSSRWVFGGGTKLTVLG
notes: Human Fab from the Ylanthia library; produced in HKB11 cells; also called Fab #1 mod; HC
B2: Reference Control Antibody RefFab #1 (humanized GPVI antibody of WO2011073954A2, SANOFI) (Fab, V domains shown)
VH: EVQLLESGPGLVAPSGSLSITCTVSGFSLTGYGVNWVRQPPGKGLEWLGMIWGDGSTDYQSTLKSRLSISKDNSKSQVFLKMNSLRTDDTARYYCARDLPMDYWGLGTSVTVSS
VL: DIQMTQSPSSLSASVGGRVTITCKASQDINKYIAWYQHKPGKGPSLLIHYTSTLQPGVPSRFSGSGSGRDYSFSISNLQPEDIATYYCLQYANLLTFGGGTKLEIKR
notes: Cloned into mammalian Fab expression vectors; a glycine-serine linker (G4S)2 was added to the C-terminus of the Fab heavy chain
B3: Fab #4 comprising a modified heavy chain constant region (Fab, V domains shown)
VH: QVQLVQSGAEVKKPGASVKVSCKASGGAFTSSYMHWVRQAPGQGLEWMGIIEPTGASTLYAQRFQGRVTMTRDTSTSTVYMELSSLRSEDTAVYYCARTGIALPLGFDLWGQGTLVTVSS
VL: QSVLTQPPSVSAAPGQKVTISCSGSSSNIGNNYVSWYQQLPGTAPKLLIYDNNKRPSGIPDRFSGSKSGTSATLGITGLQTEDEADYYCAAWSTRFRWVFGGGTKLTVLG
notes: Human Fab from the Ylanthia library; produced in HKB11 cells; also called Fab #4 mod; HC
B4: Fab #2 comprising a modified heavy chain constant region (Fab, V domains shown)
VH: QVQLVESGGGLVKPGGSLRLSCAASGFSFSDHYMSWIRQAPGKGLEWVSSVGSEGKFIDYAASVKGRFTISRDNAKNSLYLQMNSLRAEDTAVYYCARHYREFRWHYYYFDYWGQGTLVTVSS
VL: QSVLTQPPSVSGAPGQRVTISCTGSSSNIGAGYDVHWYQQLPGTAPKLLIYGNSNRPSGVPDRFSGSKSGTSASLAITGLQAEDEADYYCQSHDLGAHVWVFGGGTKLTVLG
notes: Human Fab from the Ylanthia library; produced in HKB11 cells; also called Fab #2 mod; HC
B5: Fab #3 comprising a modified heavy chain constant region (Fab, V domains shown)
VH: QVQLVESGGGLVKPGGSLRLSCAASGFSFGDYYVSWIRQAPGKGLEWVSAIGGSGSAVQYAESVKGRFTISRDNAKNSLYLQMNSLRAEDTAVYYCARHYREFRWHYYYFDYWGQGTLVTVSS
VL: B4 VL
notes: Human Fab from the Ylanthia library; produced in HKB11 cells; also called Fab #3 mod; HC

Key:
[1] = molecular target: T1, human GPVI (full-length) expressed on …; assay: cell-based or functional assay
[2] = molecular target: T4, rat GPVI extracellular domain fused at its C-terminus to human IgG1 Fc (GPVI-Fc) (rat; human); assay: ELISA, coated GPVI-Fc, Fab titrated
T4 construct: also called rGPVI
Procedure: (§1) 0.5-2 nM of recombinant GPVI-Fc-fusion proteins (as described in Example 1) were coated overnight on Maxisorp microtiter plates at 4° C. […] Following washing with PBST, Fabs (comprising a modified heavy chain constant region) serially diluted to concentrations in the range of 600 nM to 1 pM in PBST with 5% skim milk powder (MPBST) were added for 1 h at RT. Plates were washed with PBST. Bound Fab was detected using an alkaline phosphatase-conjugated detection antibody (Jackson Immuno Research) diluted in MPBST and directed against human F(ab′)2 fragment. After washing with TBS supplemented with 0.05% Tween-20 (TBST), AttoPhos substrate (Roche) diluted in ddH2O was added and fluorescence intensity measured at a Tecan Infinite 200Pro reader. EC50 values were calculated using Prism 5 software (GraphPad).

[3] = molecular target: T2, mouse GPVI on the cell surface of mouse …; assay: FACS on mouse platelets
[4] = molecular target: T4, rat GPVI extracellular domain fused at …; assay: ELISA on coated rat GPVI-Fc
[5] = molecular target: T5, mouse GPVI extracellular domain fused at its C-terminus to human IgG1 Fc (GPVI-Fc) (mouse; human); assay: ELISA on coated mouse GPVI-Fc
T5 construct: also called mGPVI; mouse GPVI-Fc

[6] = molecular target: T3, mouse GPVI (full-length) expressed on …; assay: Cell ELISA (MSD) on CHO cells expressing mouse GPVI
[7] = molecular target: T5, mouse GPVI extracellular domain fused …; assay: ELISA, coated GPVI-Fc, Fab titrated
Procedure: as §1
Target sequence in this assay (chain, as listed by the source limits assumed): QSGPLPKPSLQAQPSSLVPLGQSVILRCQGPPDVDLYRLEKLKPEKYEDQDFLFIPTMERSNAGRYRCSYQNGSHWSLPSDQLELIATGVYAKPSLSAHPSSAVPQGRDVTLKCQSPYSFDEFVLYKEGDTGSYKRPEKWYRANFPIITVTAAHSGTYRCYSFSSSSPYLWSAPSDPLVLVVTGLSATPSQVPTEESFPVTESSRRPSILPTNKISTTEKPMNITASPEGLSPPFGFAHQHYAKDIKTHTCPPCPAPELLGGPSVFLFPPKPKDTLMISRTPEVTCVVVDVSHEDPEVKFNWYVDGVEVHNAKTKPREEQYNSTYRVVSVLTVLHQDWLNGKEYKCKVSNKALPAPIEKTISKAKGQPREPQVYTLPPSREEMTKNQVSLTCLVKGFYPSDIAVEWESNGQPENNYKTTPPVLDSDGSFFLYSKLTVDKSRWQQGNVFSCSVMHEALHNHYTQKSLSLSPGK

T4 sequence (chain, as listed by the source limits assumed): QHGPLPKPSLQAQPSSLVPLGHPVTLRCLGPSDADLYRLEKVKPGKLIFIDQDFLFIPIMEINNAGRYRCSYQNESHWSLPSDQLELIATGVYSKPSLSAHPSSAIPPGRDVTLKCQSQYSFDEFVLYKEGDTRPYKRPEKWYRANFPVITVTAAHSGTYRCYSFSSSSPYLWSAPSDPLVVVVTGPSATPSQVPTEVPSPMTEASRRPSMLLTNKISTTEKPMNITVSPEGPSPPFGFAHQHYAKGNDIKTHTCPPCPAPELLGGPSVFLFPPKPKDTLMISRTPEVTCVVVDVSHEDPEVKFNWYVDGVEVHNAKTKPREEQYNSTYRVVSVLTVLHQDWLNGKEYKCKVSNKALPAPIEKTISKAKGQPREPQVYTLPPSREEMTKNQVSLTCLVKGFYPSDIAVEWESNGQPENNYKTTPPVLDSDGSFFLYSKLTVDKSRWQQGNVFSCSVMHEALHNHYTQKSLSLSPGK

Row | Binder | Cell adhesion assay IC50 [nM], coated VitroCol [1] [nM] | Cell adhesion assay Max. inhibition at 200 nM Fab [%], coated VitroCol [1] [%] | binding result [2] | binding result [3] | Cell adhesion assay IC50 [nM], coated CRP-XL [1] [nM] | Cell adhesion assay Max. inhibition at 200 nM Fab [%], coated CRP-XL [1] [%] | binding result [4] | binding result [5] | binding result [6] | EC50 [7] [nM] | EC50 [2] [nM]
1 | B1 | 0.58 | 55 | binds |  |  |  |  |  |  |  | 
2 | B2 | 1.17 | 92 |  | no binding | 2.69 | 100 | no binding | no binding | no binding |  | 
3 | B3 | 0.57 | 59 |  |  |  |  |  |  |  | 1 | 9.32
4 | B4 | 0.89 | 93 |  |  | 1.59 | 100 |  |  |  | 6.55 | 53.1
5 | B5 | 0.84 | 91 |  |  | 1.81 | 100 |  |  |  | 1.36 | 9.65
